Numbering of substitutions follows the chain as printed.
T1: MBP-AtTZF1 RR-TZF C101R (Arabidopsis thaliana, UniProt O82307 86-195, C101R)
T1 sequence: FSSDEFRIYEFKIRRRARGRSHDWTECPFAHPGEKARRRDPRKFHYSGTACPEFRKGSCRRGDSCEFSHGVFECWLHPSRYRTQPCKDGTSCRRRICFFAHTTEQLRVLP

T2: MBP-AtTZF1 RR-TZF C136R/C171R (Arabidopsis thaliana, UniProt O82307 86-195, C136R;C171R)
T2 sequence: T1 sequence with R16C, C51R, C86R

T3: MBP-AtTZF1 RR-TZF C101R/C136R/C171R (Arabidopsis thaliana, UniProt O82307 86-195, C101R;C136R;C171R)
T3 sequence: T1 sequence with C51R, C86R

T4: MBP-AtTZF1 RR;MBP-AtTZF1 TZF (Arabidopsis thaliana;Arabidopsis …, UniProt O82307;O82307 86-128;129-195, |)
T4 sequence 1: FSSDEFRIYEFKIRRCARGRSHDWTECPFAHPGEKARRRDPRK
T4 sequence 2: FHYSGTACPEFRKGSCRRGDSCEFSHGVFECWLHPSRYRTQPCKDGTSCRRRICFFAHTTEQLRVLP


Columns and labels:
Experiment in all cases: fluorescence anisotropy
MBP-AtTZF1 RR-TZF C101R = molecular target: T1, MBP-AtTZF1 RR-TZF C101R
[1] = molecular target: T2, MBP-AtTZF1 RR-TZF C136R/C171R
[2] = molecular target: T3, MBP-AtTZF1 RR-TZF C101R/C136R/C171R
[3] = molecular target: T4, MBP-AtTZF1 RR;MBP-AtTZF1 TZF

Binder | Kd (MBP-AtTZF1 RR-TZF C101R) [nM] | Kd [1] [nM] | Kd [2] [nM] | Kd [3] [nM]
UUUUUUUUUUUUUUUUUUU (ssRNA) [Fl-polyU] | 810 ± 40 | 1610 ± 40 | 3110 ± 80 | 4400 ± 100
UAUUUAUUAUUUAUUUAUU (ssRNA) [Fl-ARE19] | – | 1540 ± 50 | – | 610 ± 40

Reference: article PMC4026020
